41 sequences from the nanobody polyreactivity screen of Harvey et al. (2022) can be followed below.

A short description of this data set: yeast display, Sf9 membrane polyspecificity reagent, FACS + sequencing; frameworks hold sequencing errors. The essentials:
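After 36–48 hours of galactose induction, yeast (Saccharomyces cerevisiae BJ5465) displaying a synthetic nanobody library were stained at 4 °C for 1 hour with 10% biotinylated, detergent-solubilized Sf9 membrane reagent. Streptavidin microbeads enriched the stained cells before FACS sorting into low and high (top ~1%) gates on anti-HA and streptavidin fluorescence. Each clone's polyreactivity label reflects its gate of origin.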
Turning to “QVQHVESGGGLVQAGGSLRLSCAASGSTFRYYTMGWYRQAPGKERELVADITIGGSTYYADSVKGRFTISRDNAKNTVYLQMNSLKPEDTAVYYCAARSTGGRIFATGVAYDYWGQGTQVTVST”, the “polyreactivity (PSR sort gate)” value is “low polyreactivity”. The result for “QVQHVESGGGLVQAGGSLRLSCAASGSTFSLYAMGWSRQAPGKERELVAAIRGSGGSPYYADSVKGRFTISRDNAKNTVYLQMNTQTPEDSAVYYCAKKRYHGSNYGYDYWGQGTQVTVSS” reads “high polyreactivity”; that for “QVQHVESGGGLVQAGGSLRLSCAASGSTFSQYAMGWYRQAPGKERELVAAITRGGRTYYADSVKGRFTISRDNAKNTVYLQMNSLKPEDTAVYYCAARGGYRLRYIPYVRYDYWGQGTQVTVSS”, “high polyreactivity”.

As to “QVQHVESGGGLVQAGGSLRLSCAASGSTFTAYVMGWYRQAPGKERELVAAISRSGGRTYYADSVKGRFTISRDNAKNTVYLQMNSLKPEDTAVYYCAARSGPLAYDYWGQGTQVTVSS”, the “polyreactivity (PSR sort gate)” value is “high polyreactivity”. For the sequence “QVQHVESGGGLVQAGGSLRLSCAASGSTFVGNAMGWYRQAPGKERELVADITSGGSTNYADSVKGRFTISRDNAKNTVYLQMNSLKPEDTAVYYCAAVYLWSQRREFWGQGTQVTVSS”, the “polyreactivity (PSR sort gate)” value is on record as “low polyreactivity”. As for “QVQHVESGGGLVQAGGSLRLSCAASGSTFWYAMGWYRQAPGKERELVAAITARGGRTYYADSVKGRFTISRDNAKNTVYLQMNSLKPEDTAVYYCARLSYAGGQWIIAKYDYWGQGTQVTVSS”, the “polyreactivity (PSR sort gate)” value was “high polyreactivity”. Consider “QVQHVESGGGLVQAGGSLRLSCAASGSTFWYNAMGWYRQAPGKERELVAAISYSGGRTYYADSVKERFTISRDNAKNTVYLQMNSLKPEDTAVYYCNAASRYGGDYWGQGTQVTVSS”, for which the “polyreactivity (PSR sort gate)” value was “low polyreactivity”. Take “QVQHVESGGGLVQAGGSLRLSCAASGSTFYYYAMGWYRQAPGKERELVAAIRSDVSTNYADSVKGRFTISRDNAKNTVYLQMNSLKPEDTAVYYCAARFPWNRVTYDYWGQGTQVTVSS”: the “polyreactivity (PSR sort gate)” value was “low polyreactivity”. With “QVQHVESGGGLVQAGGSLRLSCAASGSTIRRNAMGWYRQAPGKERELVAAISGTGGRTYYADSVKGRFTISRDNAKNTVYLQMNSLKPEDTAVYYCNAAGRFYWGQGTQVTVSS”, the “polyreactivity (PSR sort gate)” value was “high polyreactivity”.

“QVQHVESGGGLVQAGGSLRLSCAASGSTLGGYAMGWSRQAPGKERELVAAISGSGGSTYYADSVKGRFTISRDNAKNSVYLQMNSLKPEDTAVYYCNAAVLGGIYRYYDYRYDYWGQGTQLTVSS”: the “polyreactivity (PSR sort gate)” value is “low polyreactivity”. With “QVQHVESGGGLVQAGGSLRLSCAASGSTLSRYVMGWDRQAPGKERELVASISWTGTRTYYADSVKGRFTISRDNAKNTVYLQMNSLKPEDTAVYYCNAVSRGGRLYDYWGQGTQVTVSS”, the “polyreactivity (PSR sort gate)” value was “high polyreactivity”. In the case of “QVQHVESGGGLVQAGGSLRLSCAASGYTFFANAMGGYRQAPGKERELVAGINRSGSTYYADSVKGRFTISRDNAKNTVYLQMNSLKPEDTAVYYFATAWHRGVRGRTSGAFDYWGQGTQVTVSS”, the “polyreactivity (PSR sort gate)” value is “high polyreactivity”. As for “QVQHVESGGGLVQAGGSLRLSCAATGTTFDTYAMGWNRQATGKERELVAAINSGGGTNYADSVKGRFTIARDNAKNTVYLQMNSLKPEVTAVYYCATDIRRDAGGGDFDYWGQGTQVTVSS”, the “polyreactivity (PSR sort gate)” value is on record as “low polyreactivity”. Turning to “QVQHVESGGGLVQAGGSLRLSCADSGSTFWFNAMGWYRQAHGKERELVAAIDWSDGSTYYADSVKGRFTISRDNAKNTVYLQMNSLKPEDTAVYYCAADHRYSARRSVPTLYDYWGQGTHVTVSS”, the “polyreactivity (PSR sort gate)” value is recorded as “low polyreactivity”. For the sequence “QVQHVESGGGLVQAGGSLRLSCASSGRIIGKYVMAWYRQAPGKERELVAGISWSAGSTYYADSVKGRFTISRDNAKNTVYLQMNSLKPEDTAVYYCAAGLEGVYDYWGQGTQVTVSS”, the “polyreactivity (PSR sort gate)” value is listed as “low polyreactivity”. As for “QVQHVESGGGLVQAGGSLRLSCDASGITFGHYTMGWYRQAHGKEREFVAAISWSGGSTYYADSVKGRFTISRDNAKNTVYLQMNSLKPEYTAVYYCNRVKPVIASYDSDYWGQGTQVTVSS”, the “polyreactivity (PSR sort gate)” value is given as “low polyreactivity”.

Regarding “QVQHVESGGGLVQAGGSLRLSGAASGSTFTYNTMGWYRQAPGKERELVAAITTYGGNTYYADSVKGRFTISRDNAKNTVYLQMNSLKPEDSAVYYCAARVIFGDFDYWGQGTQVTVSS”, the “polyreactivity (PSR sort gate)” value is given as “low polyreactivity”. Turning to “QVQHVESGGGLVQAGGSLRLTCAASARIFRYYPMGRYRPAPGKERELVAGITTGGGSTYYADSVKGRFTISRENAKNTVYLQMNSLKPEDTAVFYCAARYYTTYYWGQGTQVTVSS”, the “polyreactivity (PSR sort gate)” value was “high polyreactivity”. Consider “QVQHVESGGGLVQAGGSLSLSCAASGRTILWNAMGWYRQAPGKERELVAAITSGGRTYYADSVKGRFTISRDNAKNTVYLQMNSLIPEDTAVYYCAASTVYWSTVNSQARFNYWGQGTQVTVSS”, for which the “polyreactivity (PSR sort gate)” value is “high polyreactivity”. For “QVQHVESGGGLVQAGGSLSLSCADSGITFYRYAMGCDRQAPAKERELVDRISQIGGSTYYADSVKGRFTISRDNAKNTVYLQMNSLKPEDTAVYYCNARVRYSTVTYLRKYYYWGQGTQVTVSS”, the “polyreactivity (PSR sort gate)” value is reported as “high polyreactivity”. Turning to “QVQHVESGGGLVQAGVSLRLSCAASGSIFVNNGMGWYRQAPGKERELVAAIRLSTGSTYYADSVKGRFTISRDNAKNTVYLQMNSLKPEDTAVYYCATRSYIWGNWGQGTQVTVSS”, the “polyreactivity (PSR sort gate)” value was “high polyreactivity”. As to “QVQHVESGGGLVQARGSLRLSCAASGSIFWYNAMGWYRQAPGTVRELVAAINWSGGSTFYADSVKGRFTISRDNAKNTVYLQMNSLKPEDTAVDYCAADDWYTGYDYWGQGTQVTVSS”, the “polyreactivity (PSR sort gate)” value is on record as “high polyreactivity”. On to “QVQHVESGGGLVQAVGSLRLSCAASGNIFDRNAMGWYRQARGKERELVAAISRSGGRTYYADSVKGRFTISRDNAKNTVYLQMNSLKPEDTAVYYCNRRYRKYSSAKYDYWGQGTQVTVSS”, for which the “polyreactivity (PSR sort gate)” value is on record as “high polyreactivity”. “QVQHVESGGGLVQEGGSLRLSCAASGRIFRTNAMVWYRQAPGKERELVAAITRDGTTNYADSVKGRFTISRDNAKNTVYLQMNSLIPEDTAVYYCNARYRRSPIKFTYVRYVYEYDYWGQGTQVTVSS”: the “polyreactivity (PSR sort gate)” value is recorded as “low polyreactivity”. With “QVQHVESGGGSVQAGGRLRLSCAASGSTFIEYAMGWYRKAPGKERELVAGITTSSGRTSYADSVKGRFTISRDNAKNTVYLQMNSLKPEDTAVYYCAAKSYSDYDYWGQGTQVTVSS”, the “polyreactivity (PSR sort gate)” value is listed as “low polyreactivity”. As for “QVQHVESGGGVVQAVGSLRLSCAASGYIFRTNAMGWYRQARGKERELVAAITRSGGRTYYADSVKGRFTISRDNAKNTVYLQMNSLKPEDTAVYYCAAGGRKPVITGDYWGQGTQVTVSS”, the “polyreactivity (PSR sort gate)” value was “high polyreactivity”. On to “QVQHVESGRGFVKAGCSLRLSCASSGSIFVKNAMGRYRQAPGKERELVARITYSGGSTYYADSVKGRFTISRDNAKNTVYLQMNSVKPEDNAGYYCARTRKIAGYYYWGQGTQVTESS”, for which the “polyreactivity (PSR sort gate)” value is on record as “high polyreactivity”. As to “QVQHVESRGCLLQAGGSLRLSCAASGITFRYYTMGWYRQAPGKESELVAAITWSGSSTYYAVSVKGRFTISRDNAKNTVYLQMNSLKPEHTAVYYCAKPYHQRSAKVDYWGQGTQVTVSS”, the “polyreactivity (PSR sort gate)” value is on record as “low polyreactivity”. “QVQHVESRGGIVQAGGSLRLSCAASGFTFAYYAMGRYRQAPGKERELVAAINYSGGSTYYADSVKGRFTISRDNAKNTVYLQMNSLKPEDTAVYYCATEYYRYDGSSYDYWGQGTQVTVSS”: the “polyreactivity (PSR sort gate)” value is “high polyreactivity”. As for “QVQHVESRGGLVQAGGSLRLSCAASGFISRAYAMGWYRQAPGKERELVAAISVRVGSTYYADSVKGRFTISRDNAKNTVYLQMYSLKPEDTAVYYCAALRPWPRYDYWGQGTQVTVSS”, the “polyreactivity (PSR sort gate)” value is “high polyreactivity”. As to “QVQHVESRGGLVQAGGSLRLSCAASGFTFYYNAMGWYRQAPVKERELVAIRFRGGNTYYADSVKGRFTISRDNAKNTVYLQMNSLKPEDTAVYYCNADDRGSTYVDFVYWGQGTQVTVSS”, the “polyreactivity (PSR sort gate)” value is listed as “low polyreactivity”.

As for “QVQHVESRGGLVQAGGSLRLSCAASGRIFPRYAMGWYRQAPGKERELVAAISWSGGSTYYADSVKGRFTISRDNAKNTVYLQMNSLKPEDTAVYYCAARGRLRYSGSIIYYWGQGTQVTVSS”, the “polyreactivity (PSR sort gate)” value was “high polyreactivity”. In the case of “QVQHVESRGGLVQAGGSLRLSCAASGRIFTGYAMGWYRQAPGKERELVAAITASGGNTYYADSVKGRFTISRVNAKNTVYLQMNSLTPEDTAVFYCAADFYYYKIQYAYWGQGTQVTVSS”, the “polyreactivity (PSR sort gate)” value is “low polyreactivity”. For “QVQHVESRGGLVQAGGSLRLSCAASGRSFSDYAMGGYRQAAGKERELVASINSGGSTYYADSVKGRFTISRDKAKNTVYLHMNSLKPEDTAVYYCAAGFQLVKGSLSGRAAYYYWGQGTQVTVSS”, the “polyreactivity (PSR sort gate)” value was “high polyreactivity”. Regarding “QVQHVESRGGLVQAGGSLRLSCADSGSIFRAYAKGWYIQAPGKERELVADISRSGGSTYYADSVKGRFTISRDNANNTVYLQMNRLNPEDTAVYYCAAVFYLYSNLYGEYEYWGQGTQVTLSS”, the “polyreactivity (PSR sort gate)” value is given as “low polyreactivity”. For “QVQHVESRRGLVQAGGSLRLSCAASGFTFYSYAMGWYRQAPGKEREFVAAGSTYYADSVKGRFTISRDNAKNTDYLQMNSLKPEDTAVYYCATDPIGGWTRPQRYGDDYWGQGTQVTVSS”, the “polyreactivity (PSR sort gate)” value is listed as “low polyreactivity”. In the case of “QVQHVESVGGLVQAGGSLRLSCAASGSIFEYNAMGWYRQAPGKERELVAAISWSSGTTYYADSVKGRFTISRDNAKNTVYLQMNSLKPEDTAVYYCNAGRYGKDSDYWGQGTQVTVSS”, the “polyreactivity (PSR sort gate)” value is “low polyreactivity”. On to “QVQHVVSVGGLVQAGGSLRLSCAASGSTFLLNTMGWYRQAPGKERELVAAISSITGDTYYADSVKGRFTISRDNAKNTVYLQMNSLKPEDTAVYYCAAYLSETRPYLYDYWGLGTQVTVSS”, for which the “polyreactivity (PSR sort gate)” value is given as “low polyreactivity”. With “QVQIEESGGGLVQAGGSLRLICAASGRIFLPYVMGWYRQAPGKERELVATITFGRSTTYADSVKGRFTISRDNAKNTVYLQMNCLKPEDTAFYYCNALSALAVEDGYWGHGTQVTVSS”, the “polyreactivity (PSR sort gate)” value is “low polyreactivity”. As to “QVQIEESGGGLVQAGGSLRLSCAASGLIFGSYVMGWYRQAPGKERELVAAITVRTGTTYYADSVKGRFTISRDNAKNTVYLKMNSLKPEDTAVYYCALRYRPKYGYWGQGTQVTVSS”, the “polyreactivity (PSR sort gate)” value was “high polyreactivity”. As to “QVQIEESGGGLVQAGGSLRLSCAASGSIFGKYAMGWYRQAPGKERELVAAITWSGGYTRYADSGKGRFTISRDKAKNTVYLLMNSLKPEDTAVYYCADPSTESKYYYWGQGTQVTVSS”, the “polyreactivity (PSR sort gate)” value was “high polyreactivity”.
